{
  "source": "patent US20240270821A1",
  "about": "“GIP/GLP1/GCG TRI-RECEPTOR AGONISTS AND USES THEREOF” (priority 2023, published 2024)",
  "binders": {"B1": {"name": "Example 7 (peptide)", "chain": "YXQGTFTSDFSKXLDKKAQXAFIEYLLAGGPSSGEPPPSSG", "modifications": "Aib, αMeL, acylated K, C-terminal amide; synthetic construct; SITE 2: note = 2-Aminoisobutyric Acid; SITE 13: note = alpha-methyl-leucine; SITE 17: note = Lysine is chemically modified through conjugation of the epsilon-amino group of the Lysine side chain with (2-[2-(2-Amino-ethoxy)-ethoxy]-acetyl)-(gamma-Glu)-CO-(CH2) 18-CO2H; SITE 20: n"}, "B2": {"name": "Example 99 (peptide)", "chain": "B1 chain with K12X, E35A, S39E, S40G, G41E", "modifications": "synthetic construct; SITE 2: note = 2-Aminoisobutyric Acid; SITE 12: note = L-ornithine; SITE 13: note = alpha-methyl-leucine; SITE 17: note = Lysine is chemically modified through conjugation of the epsilon-amino group of the Lysine side chain with (2-[2-(2-Amino-ethoxy)-ethoxy]-acetyl)-(gamma-Glu)"}, "B3": {"name": "Example 26 (peptide)", "chain": "B1 chain with A21Q, S40E", "modifications": "Lys acylated; Aib, αMeL; C-terminal amide; synthetic construct; SITE 2: note = 2-Aminoisobutyric Acid; SITE 13: note = alpha-methyl-leucine; SITE 17: note = Lysine is chemically modified through conjugation of the epsilon-amino group of the Lysine side chain with (2-[2-(2-Amino-ethoxy)-ethoxy]-acetyl)-(gamma-Glu)-CO-(CH2) 16-CO2H; SITE 20: n"}, "B4": {"name": "Example 16 (peptide)", "chain": "B1 chain with E35A, S39G, S40G, G41S", "modifications": "Aib, αMeL; acylated Lys; C-terminal amide; synthetic construct; SITE 2: note = 2-Aminoisobutyric Acid; SITE 13: note = alpha-methyl-leucine; SITE 17: note = Lysine is chemically modified through conjugation of the epsilon-amino group of the Lysine side chain with (2-[2-(2-Amino-ethoxy)-ethoxy]-acetyl)-(gamma-Glu)-CO-(CH2) 18-CO2H; SITE 20: n"}, "B5": {"name": "Example 93 (peptide)", "chain": "B1 chain with K12X, E35A, S39E, S40G, G41S", "modifications": "synthetic construct; SITE 2: note = 2-Aminoisobutyric Acid; SITE 12: note = L-ornithine; SITE 13: note = alpha-methyl-leucine; SITE 17: note = Lysine is chemically modified through conjugation of the epsilon-amino group of the Lysine side chain with (2-[2-(2-Amino-ethoxy)-ethoxy]-acetyl)-(gamma-Glu)"}, "B6": {"name": "Example 12 (peptide)", "chain": "B1 chain with E35A, S40G", "modifications": "Aib, αMeL; acylated Lys; C-terminal amide; synthetic construct; SITE 2: note = 2-Aminoisobutyric Acid; SITE 13: note = alpha-methyl-leucine; SITE 17: note = Lysine is chemically modified through conjugation of the epsilon-amino group of the Lysine side chain with (2-[2-(2-Amino-ethoxy)-ethoxy]-acetyl)-(gamma-Glu)-CO-(CH2) 18-CO2H; SITE 20: n"}, "B7": {"name": "Example 8 (peptide)", "chain": "B1 chain with S40G, G41S", "modifications": "non-natural residues, acylation, C-terminal amide; synthetic construct; SITE 2: note = 2-Aminoisobutyric Acid; SITE 13: note = alpha-methyl-leucine; SITE 17: note = Lysine is chemically modified through conjugation of the epsilon-amino group of the Lysine side chain with (2-[2-(2-Amino-ethoxy)-ethoxy]-acetyl)-(gamma-Glu)-CO-(CH2) 18-CO2H; SITE 20: n"}, "B8": {"name": "Example 23 (peptide)", "chain": "B1 chain with S40G, G41E", "modifications": "Aib, αMeL, acylated K, C-terminal amide; synthetic construct; SITE 2: note = 2-Aminoisobutyric Acid; SITE 13: note = alpha-methyl-leucine; SITE 17: note = Lysine is chemically modified through conjugation of the epsilon-amino group of the Lysine side chain with (2-[2-(2-Amino-ethoxy)-ethoxy]-acetyl)-(gamma-Glu)-CO-(CH2) 16-CO2H; SITE 20: n"}, "B9": {"name": "Example 10 (peptide)", "chain": "B1 chain with E35A, S40E", "modifications": "Aib, αMeL; acylated lysine; C-terminal amide; synthetic construct; SITE 2: note = 2-Aminoisobutyric Acid; SITE 13: note = alpha-methyl-leucine; SITE 17: note = Lysine is chemically modified through conjugation of the epsilon-amino group of the Lysine side chain with (2-[2-(2-Amino-ethoxy)-ethoxy]-acetyl)-(gamma-Glu)-CO-(CH2) 18-CO2H; SITE 20: n"}, "B10": {"name": "Example 18 (peptide)", "chain": "B1 chain with A28E, E35A, S39G, S40G, G41S", "modifications": "Aib, αMeL; acylated Lys; C-terminal amide; synthetic construct; SITE 2: note = 2-Aminoisobutyric Acid; SITE 13: note = alpha-methyl-leucine; SITE 17: note = Lysine is chemically modified through conjugation of the epsilon-amino group of the Lysine side chain with (2-[2-(2-Amino-ethoxy)-ethoxy]-acetyl)-(gamma-Glu)-CO-(CH2) 18-CO2H; SITE 20: n"}, "B11": {"name": "Example 97 (peptide)", "chain": "B1 chain with K12X, S40G, G41E", "modifications": "synthetic construct; SITE 2: note = 2-Aminoisobutyric Acid; SITE 12: note = L-ornithine; SITE 13: note = alpha-methyl-leucine; SITE 17: note = Lysine is chemically modified through conjugation of the epsilon-amino group of the Lysine side chain with (2-[2-(2-Amino-ethoxy)-ethoxy]-acetyl)-(gamma-Glu)"}},
  "note": "Where a chain is given by its changes, count along the chain named.",
  "data": [
    {"target": "T1, human GIP receptor (human) (UniProt P48546)", "T1 sequence (looked up)": "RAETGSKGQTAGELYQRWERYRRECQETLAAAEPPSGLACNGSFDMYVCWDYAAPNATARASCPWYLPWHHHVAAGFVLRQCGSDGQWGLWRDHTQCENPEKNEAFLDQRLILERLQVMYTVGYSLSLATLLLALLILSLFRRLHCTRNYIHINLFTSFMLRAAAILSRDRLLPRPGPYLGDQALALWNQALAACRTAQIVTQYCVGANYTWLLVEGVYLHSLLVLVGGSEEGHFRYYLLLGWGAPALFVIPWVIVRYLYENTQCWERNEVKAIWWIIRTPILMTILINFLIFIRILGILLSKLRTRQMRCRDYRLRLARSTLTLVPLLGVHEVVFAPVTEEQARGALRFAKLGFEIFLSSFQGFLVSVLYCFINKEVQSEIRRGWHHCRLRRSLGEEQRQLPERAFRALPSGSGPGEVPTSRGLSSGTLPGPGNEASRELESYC", "experiment": "cell-based or functional assay", "units": {"Relative cAMP EC50": "nM", "cAMP Rel EC50 (in the presence of 1% HSA)": "nM", "cAMP Rel EC50, nM (in the presence of 1% HSA)": "nM"}, "values": [
      {"binder": "B1", "Relative cAMP EC50": 0.203, "cAMP Rel EC50 (in the presence of 1% HSA)": 50.6},
      {"binder": "B2", "Relative cAMP EC50": 0.174, "cAMP Rel EC50, nM (in the presence of 1% HSA)": 29.5},
      {"binder": "B3", "Relative cAMP EC50": 0.2, "cAMP Rel EC50 (in the presence of 1% HSA)": 35.4},
      {"binder": "B4", "Relative cAMP EC50": 0.217, "cAMP Rel EC50 (in the presence of 1% HSA)": 35.9},
      {"binder": "B5", "Relative cAMP EC50": 0.162, "cAMP Rel EC50, nM (in the presence of 1% HSA)": 27.9},
      {"binder": "B6", "Relative cAMP EC50": 0.17, "cAMP Rel EC50 (in the presence of 1% HSA)": 30.2},
      {"binder": "B7", "Relative cAMP EC50": 0.231, "cAMP Rel EC50 (in the presence of 1% HSA)": 39.4},
      {"binder": "B8", "Relative cAMP EC50": 0.178, "cAMP Rel EC50 (in the presence of 1% HSA)": 25.5},
      {"binder": "B9", "Relative cAMP EC50": 0.226, "cAMP Rel EC50 (in the presence of 1% HSA)": 43},
      {"binder": "B10", "Relative cAMP EC50": 0.337, "cAMP Rel EC50 (in the presence of 1% HSA)": 59.6},
      {"binder": "B11", "Relative cAMP EC50": 0.176, "cAMP Rel EC50, nM (in the presence of 1% HSA)": 23.9}
    ]},
    {"target": "hGLP-1R (Homo sapiens, UniProt P43220)", "sequence (P43220 24-463)": "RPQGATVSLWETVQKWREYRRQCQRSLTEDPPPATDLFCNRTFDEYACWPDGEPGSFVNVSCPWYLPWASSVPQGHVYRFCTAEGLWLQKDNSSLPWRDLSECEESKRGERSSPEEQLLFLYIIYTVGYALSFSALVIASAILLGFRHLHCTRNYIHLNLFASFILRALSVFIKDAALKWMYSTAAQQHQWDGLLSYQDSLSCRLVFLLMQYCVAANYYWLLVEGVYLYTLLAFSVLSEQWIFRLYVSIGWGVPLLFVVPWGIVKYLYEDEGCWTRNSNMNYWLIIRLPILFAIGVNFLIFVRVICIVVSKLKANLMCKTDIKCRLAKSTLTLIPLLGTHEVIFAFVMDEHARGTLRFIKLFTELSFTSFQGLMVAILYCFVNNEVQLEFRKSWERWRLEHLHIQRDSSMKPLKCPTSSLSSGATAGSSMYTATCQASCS", "experiment": "cell-based or functional assay", "units": {"Relative cAMP EC50": "nM", "cAMP Rel EC50 (in the presence of 1% HSA)": "nM", "cAMP Rel EC50, nM (in the presence of 1% HSA)": "nM"}, "values": [
      {"binder": "B1", "Relative cAMP EC50": 2.11, "cAMP Rel EC50 (in the presence of 1% HSA)": 494},
      {"binder": "B2", "Relative cAMP EC50": 3.54, "cAMP Rel EC50, nM (in the presence of 1% HSA)": 588},
      {"binder": "B3", "Relative cAMP EC50": 3.44, "cAMP Rel EC50 (in the presence of 1% HSA)": 623},
      {"binder": "B4", "Relative cAMP EC50": 1.54, "cAMP Rel EC50 (in the presence of 1% HSA)": 281},
      {"binder": "B5", "Relative cAMP EC50": 2.63, "cAMP Rel EC50, nM (in the presence of 1% HSA)": 397},
      {"binder": "B6", "Relative cAMP EC50": 1.46, "cAMP Rel EC50 (in the presence of 1% HSA)": 216},
      {"binder": "B7", "Relative cAMP EC50": 2.11, "cAMP Rel EC50 (in the presence of 1% HSA)": 603},
      {"binder": "B8", "Relative cAMP EC50": 2.98, "cAMP Rel EC50 (in the presence of 1% HSA)": 308},
      {"binder": "B9", "Relative cAMP EC50": 1.85, "cAMP Rel EC50 (in the presence of 1% HSA)": 375},
      {"binder": "B10", "Relative cAMP EC50": 2.31, "cAMP Rel EC50 (in the presence of 1% HSA)": 561},
      {"binder": "B11", "Relative cAMP EC50": 3.23, "cAMP Rel EC50, nM (in the presence of 1% HSA)": 605}
    ]},
    {"target": "human GLP1-R (SNAP-GLP-1R expressed in HEK293 cells) (human) (UniProt P43220)", "sequence (P43220 24-463)": "as above", "experiment": "cell-based or functional assay", "units": {"GLP1R Internalization EC50": "nM", "Internalization % TOP": "%"}, "values": [
      {"binder": "B1", "GLP1R Internalization EC50": 52.6, "Internalization % TOP": 76.3},
      {"binder": "B2", "GLP1R Internalization EC50": 56.9, "Internalization % TOP": 46.1},
      {"binder": "B3", "GLP1R Internalization EC50": 96.1, "Internalization % TOP": 75.6},
      {"binder": "B4", "GLP1R Internalization EC50": 37.8, "Internalization % TOP": 74.6},
      {"binder": "B5", "GLP1R Internalization EC50": 30.4, "Internalization % TOP": 50.8},
      {"binder": "B6", "GLP1R Internalization EC50": 48.5, "Internalization % TOP": 75.3},
      {"binder": "B7", "GLP1R Internalization EC50": 63.2, "Internalization % TOP": 74},
      {"binder": "B8", "GLP1R Internalization EC50": 51.5, "Internalization % TOP": 67.2},
      {"binder": "B9", "GLP1R Internalization EC50": 79.2, "Internalization % TOP": 71.9},
      {"binder": "B10", "GLP1R Internalization EC50": 91.8, "Internalization % TOP": 74.1},
      {"binder": "B11", "GLP1R Internalization EC50": 51.9, "Internalization % TOP": 50.7}
    ]},
    {"target": "human glucagon receptor (human) (UniProt P47871)", "sequence (P47871 26-477)": "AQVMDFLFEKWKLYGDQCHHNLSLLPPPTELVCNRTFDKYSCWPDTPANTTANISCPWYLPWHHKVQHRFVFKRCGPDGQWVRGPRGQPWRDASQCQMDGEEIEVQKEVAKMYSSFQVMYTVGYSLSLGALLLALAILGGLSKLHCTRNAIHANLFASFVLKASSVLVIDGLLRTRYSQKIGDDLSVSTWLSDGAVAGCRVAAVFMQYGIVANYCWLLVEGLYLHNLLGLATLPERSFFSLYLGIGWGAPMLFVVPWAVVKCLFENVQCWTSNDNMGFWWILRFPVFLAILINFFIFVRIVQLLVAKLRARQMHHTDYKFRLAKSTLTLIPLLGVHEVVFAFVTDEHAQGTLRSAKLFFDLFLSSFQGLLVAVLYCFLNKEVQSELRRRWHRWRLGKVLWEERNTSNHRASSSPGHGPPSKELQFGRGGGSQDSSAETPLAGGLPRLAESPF", "experiment": "cell-based or functional assay", "units": {"Relative cAMP EC50": "nM", "cAMP Rel EC50 (in the presence of 1% HSA)": "nM", "cAMP Rel EC50, nM (in the presence of 1% HSA)": "nM"}, "values": [
      {"binder": "B1", "Relative cAMP EC50": 5.05, "cAMP Rel EC50 (in the presence of 1% HSA)": 1210},
      {"binder": "B2", "Relative cAMP EC50": 6.09, "cAMP Rel EC50, nM (in the presence of 1% HSA)": 1130},
      {"binder": "B3", "Relative cAMP EC50": 4.82, "cAMP Rel EC50 (in the presence of 1% HSA)": 980},
      {"binder": "B4", "Relative cAMP EC50": 8.84, "cAMP Rel EC50 (in the presence of 1% HSA)": 1660},
      {"binder": "B5", "Relative cAMP EC50": 7.16, "cAMP Rel EC50, nM (in the presence of 1% HSA)": 1390},
      {"binder": "B6", "Relative cAMP EC50": 12.2, "cAMP Rel EC50 (in the presence of 1% HSA)": 1490},
      {"binder": "B7", "Relative cAMP EC50": 6.65, "cAMP Rel EC50 (in the presence of 1% HSA)": 1560},
      {"binder": "B8", "Relative cAMP EC50": 5.13, "cAMP Rel EC50 (in the presence of 1% HSA)": 573},
      {"binder": "B9", "Relative cAMP EC50": 7.62, "cAMP Rel EC50 (in the presence of 1% HSA)": 1640},
      {"binder": "B10", "Relative cAMP EC50": 2.7, "cAMP Rel EC50 (in the presence of 1% HSA)": 1210},
      {"binder": "B11", "Relative cAMP EC50": 6.73, "cAMP Rel EC50, nM (in the presence of 1% HSA)": 1270}
    ]}
  ]
}
